Laboratory results published in paper PMC4818545.
Read-outs that look alike come from different tables or passages of the source.

Assays:
[1] = molecular target: recombinant (β15–66)2 fragment; experiment: ELISA
[2] = molecular target: recombinant (β15–66)2 fragment; experiment: ELISA; remark: listed apart in the source
[3] = molecular target: recombinant (β15–66)2 fragment; experiment: ELISA; remark: listed apart in the source
VLDLR(1–4)HT (human) = VLDLR(1–4)HT (human) (UniProt P98155); experiment: SPR
VLDLR(1–8)HT (human) = VLDLR(1–8)HT (human) (UniProt P98155); experiment: SPR
VLDLR(2–3)HT (human) = VLDLR(2–3)HT (human) (UniProt P98155); experiment: SPR
VLDLR(2–4)HT (human) = VLDLR(2–4)HT (human) (UniProt P98155); experiment: SPR
[4] = molecular target: fibrin (β15-66)2 fragment 15-66 (Homo sapiens) (UniProt P02675); experiment: ELISA; settings: cited from earlier work
Chain of UniProt P02675 (P02675 15-66): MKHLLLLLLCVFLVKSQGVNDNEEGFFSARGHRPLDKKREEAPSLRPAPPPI

| Substance | Kd [1] [nM] | Kd [3] [nM] | other results |
| --- | --- | --- | --- |
| VLDLR(1–4)HT (from UniProt P98155 28-190) (domain or fragment) | 60 |  |  |
| VLDLR(1–8)HT (from UniProt P98155 28-355) (domain or fragment) | 16.3 | 3.4 | Kd [2]: 21 nM |
| VLDLR(2–3)HT (from UniProt P98155 69-151) (domain or fragment) | 78 |  |  |
| recombinant (β15–66)2 fragment (domain or fragment) |  |  | Kd (VLDLR(1–4)HT (human)): 3.7 nM; Kd (VLDLR(1–8)HT (human)): 3.1 nM; Kd (VLDLR(2–3)HT (human)): 9.5 nM; Kd (VLDLR(2–4)HT (human)): 4.6 nM |
| sVLDLR ECD (from UniProt P98155) |  |  | Kd [4]: 5.7 nM |
| soluble form of human VLDL receptor, sVLDLRHT (from UniProt P98155 28-797) | 16.4 | 2.5 |  |
